According to patent US20210155676A1 (Gilead, published 2021):

Key:
[1] = molecular target: HIV-1 92US657 Env (on virus) (HIV-1 isolate 92US657); experiment: cell-based or functional assay
[2] = molecular target: HIV-1 93HT593 Env (on virus) (HIV-1 isolate 93HT593); experiment: cell-based or functional assay
HIV-1 BaL Env (on virus) = HIV-1 BaL Env (on virus) (HIV-1 strain BaL); experiment: cell-based or functional assay
[3] = molecular target: HIV-1 92US727 Env (on virus) (HIV-1 isolate 92US727); experiment: cell-based or functional assay
[4] = molecular target: HIV-1 92US712 Env (on virus) (HIV-1 isolate 92US712); experiment: cell-based or functional assay
[5] = molecular target: human FcγRIIIA on primary NK effector cells (human, UniProt P08637 17-254); experiment: cell-based or functional assay
Sequence of human FcγRIIIA on primary NK effector cells (P08637 17-254): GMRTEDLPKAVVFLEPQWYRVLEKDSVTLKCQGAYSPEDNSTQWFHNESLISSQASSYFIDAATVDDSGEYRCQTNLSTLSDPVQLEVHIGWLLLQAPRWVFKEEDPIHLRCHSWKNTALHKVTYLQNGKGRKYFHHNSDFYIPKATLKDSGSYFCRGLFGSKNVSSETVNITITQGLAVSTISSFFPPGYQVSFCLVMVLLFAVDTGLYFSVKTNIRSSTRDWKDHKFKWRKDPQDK

Human FcRn [6] = molecular target: T1, Human FcRn (human, UniProt P55899 24-297; P61769 21-119); experiment: ELISA, pH 7.0/6.0 ratio relative to PGT121
T1 construct: also called neonatal Fc receptor
T1 sequence (P55899 24-297 limits assumed, chain 1 of 2): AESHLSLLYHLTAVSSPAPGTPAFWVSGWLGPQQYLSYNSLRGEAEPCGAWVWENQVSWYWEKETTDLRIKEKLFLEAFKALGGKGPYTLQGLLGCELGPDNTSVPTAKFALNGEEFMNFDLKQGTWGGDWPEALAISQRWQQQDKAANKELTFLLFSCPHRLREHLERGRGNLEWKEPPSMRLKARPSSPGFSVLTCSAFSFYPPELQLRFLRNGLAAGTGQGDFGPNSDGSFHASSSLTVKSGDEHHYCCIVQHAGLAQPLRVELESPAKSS
T1 sequence (P61769 21-119 limits assumed, chain 2 of 2): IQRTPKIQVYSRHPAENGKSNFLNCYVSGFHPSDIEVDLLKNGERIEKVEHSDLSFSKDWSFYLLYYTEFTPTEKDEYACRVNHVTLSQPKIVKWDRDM
Experimental: (§1) The binding of antibodies to FcRn of various species at different pHs was determined. A 96-well Maxisorp plate was coated with 100 ul of 5 μg/ml FcRn. The plate was incubated overnight at 4° C., and then blocked with 4% skim milk for 2 hr at room temperature after washing 3 times with 0.05% Tween 20 washing buffer. The plate was incubated with 3 fold serial dilution of primary antibody for 1 hr at room temperature. The plate was then washed 3 times and 100 of Fab-anti-human Fab-HRP or Goat anti-human IgG-HRP secondary antibody diluted in 4% skimmed milk was added. Plates were then incubated 50 min at room temperature, washed three times, and 100 μL fresh TMB substrate was added. Plates were developed for 3 minutes on bench with gentle shaking. Plate was quenched with 100 μL 1M HCl, shaken briefly, read at A450 on a spectramax m5 plate reader.

Human FcRn [7] = molecular target: T1, Human FcRn; experiment: ELISA, FcRn coated on plate, pH 6.0
Experimental: as §1

Human FcRn [8] = molecular target: T1, Human FcRn; experiment: ELISA, FcRn coated on plate, pH 7.0
Experimental: as §1

Human FcRn [9] = molecular target: T1, Human FcRn; experiment: ELISA, ratio of EC50 at pH 7.0 to EC50 at pH 6.0
Experimental: as §1

Binder | neutralization IC50, HIV-1 US657, CEM.NKr.CCR5.Luc assay [1] | neutralization IC50, HIV-1 HT593, CEM.NKr.CCR5.Luc assay [2] | neutralization IC50, HIV-1 BaL, CEM.NKr.CCR5.Luc assay (HIV-1 BaL Env (on virus)) | neutralization IC50, HIV-1 US727, CEM.NKr.CCR5.Luc assay [3] | neutralization IC50, HIV-1 US712, CEM.NKr.CCR5.Luc assay [4] | ADCC AUC, NK donor A4813, primary CD4+ T cells infected with HT593 [5] | ADCC AUC, NK donor A4813, primary CD4+ T cells infected with US657 [5] | ADCC EC50, NK donor A4813, primary CD4+ T cells infected with HT593 [5] | ADCC EC50, NK donor A4813, primary CD4+ T cells infected with US657 [5] | ADCC Emax, NK donor A4813, primary CD4+ T cells infected with HT593 [5] | ADCC Emax, NK donor A4813, primary CD4+ T cells infected with US657 [5] | Fold vs PGT121 (Human FcRn [6]) | EC50 (Human FcRn [7]) | EC50 (Human FcRn [8]) | Ratio pH 7.0/6.0 (Human FcRn [9])
PGT121.60 hIgG1/hLambda (antibody) heavy: QMQLQESGPGLVKPSETLSLTCSVSGASISDSYWSWIRRSPGKGLEWIGYVHKSGDTNYNPSLKSRVHLSLDTSKNQVSLSLTGVTAADSGKYYCARTLHGRRIYGIVAFNEWFTYFYMDVWGTGTQVTVSSASTKGPSVFPLAPSSKSTSGGTAALGCLVKDYFPEPVTVSWNSGALTSGVHTFPAVLQSSGLYSLSSVVTVPSSSLGTQTYICNVNHKPSNTKVDKKVEPKSCDKTHTCPPCPAPELLAGPDVFLFPPKPKDTLMISRTPEVTCVVVDVSHEDPEVKFNWYVDGVEVHNAKTKPREEQYNSTYRVVSVLTVLHQDWLNGKEYKCKVSNKALPLPEEKTISKAKGQPREPQVYTLPPSREEMTKNQVSLTCLVKGFYPSDIAVEWESNGQPENNYKTTPPVLDSDGSFFLYSKLTVDKSRWQQGNVFSCSVLHEALHSHYTQKSLSLSPGK light: not shown | 62 ng/mL | 141 ng/mL | 7 ng/mL | 7 ng/mL | 8 ng/mL |  |  |  |  |  |  |  |  |  | 
PGT121.42 hIgG1/hLambda (antibody, also called PTG121.42) heavy: QMQLQESGPGLVKPSETLSLTCSVSGASISDSYWSWIRRSPGKGLEWIGYVHKSGDTNYNPSLKSRVHLSLDTSKNQVSLSLSSVTAADSGKYYCARTLHGRRIYGIVAFNEWFTYFYMDVWGKGTQVTVSSASTKGPSVFPLAPSSKSTSGGTAALGCLVKDYFPEPVTVSWNSGALTSGVHTFPAVLQSSGLYSLSSVVTVPSSSLGTQTYICNVNHKPSNTKVDKKVEPKSCDKTHTCPPCPAPELLAGPDVFLFPPKPKDTLMISRTPEVTCVVVDVSHEDPEVKFNWYVDGVEVHNAKTKPREEQYNSTYRVVSVLTVLHQDWLNGKEYKCKVSNKALPLPEEKTISKAKGQPREPQVYTLPPSREEMTKNQVSLTCLVKGFYPSDIAVEWESNGQPENNYKTTPPVLDSDGSFFLYSKLTVDKSRWQQGNVFSCSVLHEALHSHYTQKSLSLSPGK light: not shown |  |  |  |  |  | 191 | 222 | 4.9 nM | 1.4 nM | 71% | 72% | 5 fold | 0.41 nM | 69.8 nM | 170
PGT121.65 hIgG1/hLambda (antibody) heavy: QLQLQESGPGLVKPSETLSLTCSVSGASISDAYWSWIRRSPGKGLEWIGYVHKSGDTNYNPSLKSRVHLSLDTSKNQVSLSLTGVTAADSGKYYCARALHGRRIYGIVAFNEWFTYFYMDVWGTGTQVTVSSASTKGPSVFPLAPSSKSTSGGTAALGCLVKDYFPEPVTVSWNSGALTSGVHTFPAVLQSSGLYSLSSVVTVPSSSLGTQTYICNVNHKPSNTKVDKKVEPKSCDKTHTCPPCPAPELLAGPDVFLFPPKPKDTLMISRTPEVTCVVVDVSHEDPEVKFNWYVDGVEVHNAKTKPREEQYNSTYRVVSVLTVLHQDWLNGKEYKCKVSNKALPLPEEKTISKAKGQPREPQVYTLPPSREEMTKNQVSLTCLVKGFYPSDIAVEWESNGQPENNYKTTPPVLDSDGSFFLYSKLTVDKSRWQQGNVFSCSVLHEALHSHYTQKSLSLSPGK light: SDISVAPGETARISCGEKSLGSRAVQWYQHRAGQAPSLIIYNNQDRPSGIPERFSGSPDSRPGTTATLTITSVEAGDEADYYCHIWDSRVPTKWVFGGGTKLTVLGQPKAAPSVTLFPPSSEELQANKATLVCLISDFYPGAVTVAWKADSSPVKAGVETTTPSKQSNNKYAASSYLSLTPEQWKSHRSYSCQVTHEGSTVEKTVAPTECS |  |  |  |  |  | 158 | 190 | 2.6 nM | 3.2 nM | 71% | 75% | 6 fold | 0.57 nM | 104 nM | 182
PGT121.61 hIgG1/hLambda (antibody) heavy: QMQLQESGPGLVKPSETLSLTCSVSGASISDSYWSWIRRSPGKGLEWIGYVHKSGDTNYNPSLKSRVHLSLDTSKNQVSLSLTGVTAADSGKYYCARTLHGRRIYGIVAFNEWFTYFYMDVWGTGTQVTVSSASTKGPSVFPLAPSSKSTSGGTAALGCLVKDYFPEPVTVSWNSGALTSGVHTFPAVLQSSGLYSLSSVVTVPSSSLGTQTYICNVNHKPSNTKVDKKVEPKSCDKTHTCPPCPAPELLAGPDVFLFPPKPKDTLMISRTPEVTCVVVDVSHEDPEVKFNWYVDGVEVHNAKTKPREEQYNSTYRVVSVLTVLHQDWLNGKEYKCKVSNKALPLPEEKTISKAKGQPREPQVYTLPPSREEMTKNQVSLTCLVKGFYPSDIAVEWESNGQPENNYKTTPPVLDSDGSFFLYSKLTVDKSRWQQGNVFSCSVLHEALHSHYTQKSLSLSPGK light: SDISVAPGETARISCGEKSLGSRAVQWYQHRAGQAPSLIIYNNQDRPSGIPERFSGSPDSRPGTTATLTITSVEAGDEADYYCHIWDSRVPTKWVFGGGTKLTVLGQPKAAPSVTLFPPSSEELQANKATLVCLISDFYPGAVTVAWKADSSPVKAGVETTTPSKQSNNKYAASSYLSLTPEQWKSHRSYSCQVTHEGSTVEKTVAPTECS [PGT121.61 hIgG1/hLambda, listing 1 of 2 here] | 72 ng/mL | 343 ng/mL | 8 ng/mL | 5 ng/mL | 8 ng/mL |  |  |  |  |  |  |  |  |  | 
PGT121.61 hIgG1/hLambda (antibody) heavy: QMQLQESGPGLVKPSETLSLTCSVSGASISDSYWSWIRRSPGKGLEWIGYVHKSGDTNYNPSLKSRVHLSLDTSKNQVSLSLTGVTAADSGKYYCARTLHGRRIYGIVAFNEWFTYFYMDVWGTGTQVTVSSASTKGPSVFPLAPSSKSTSGGTAALGCLVKDYFPEPVTVSWNSGALTSGVHTFPAVLQSSGLYSLSSVVTVPSSSLGTQTYICNVNHKPSNTKVDKKVEPKSCDKTHTCPPCPAPELLAGPDVFLFPPKPKDTLMISRTPEVTCVVVDVSHEDPEVKFNWYVDGVEVHNAKTKPREEQYNSTYRVVSVLTVLHQDWLNGKEYKCKVSNKALPLPEEKTISKAKGQPREPQVYTLPPSREEMTKNQVSLTCLVKGFYPSDIAVEWESNGQPENNYKTTPPVLDSDGSFFLYSKLTVDKSRWQQGNVFSCSVLHEALHSHYTQKSLSLSPGK light: SDISVAPGETARISCGEKSLGSRAVQWYQHRAGQAPSLIIYNNQDRPSGIPERFSGSPDSRPGTTATLTITSVEAGDEADYYCHIWDSRVPTKWVFGGGTKLTVLGQPKAAPSVTLFPPSSEELQANKATLVCLISDFYPGAVTVAWKADSSPVKAGVETTTPSKQSNNKYAASSYLSLTPEQWKSHRSYSCQVTHEGSTVEKTVAPTECS [PGT121.61 hIgG1/hLambda, listing 2 of 2 here] |  |  |  |  |  | 169 | 190 | 2.2 nM | 1.3 nM | 70% | 72% | 33 fold | 0.13 nM | 140 nM | 1070
PGT121.56 hIgG1/hLambda (antibody) heavy: QMQLQESGPGLVKPSETLSLTCSVSGASISDSYWSWIRRSPGKGLEWIGYVHKSGDTNYSPSLKSRVNLSLDTSKNQVSLSLVAATAADSGKYYCARTLHGRRIYGIVAFNEWFTYFYMDVWGNGTQVTVSSASTKGPSVFPLAPSSKSTSGGTAALGCLVKDYFPEPVTVSWNSGALTSGVHTFPAVLQSSGLYSLSSVVTVPSSSLGTQTYICNVNHKPSNTKVDKKVEPKSCDKTHTCPPCPAPELLAGPDVFLFPPKPKDTLMISRTPEVTCVVVDVSHEDPEVKFNWYVDGVEVHNAKTKPREEQYNSTYRVVSVLTVLHQDWLNGKEYKCKVSNKALPLPEEKTISKAKGQPREPQVYTLPPSREEMTKNQVSLTCLVKGFYPSDIAVEWESNGQPENNYKTTPPVLDSDGSFFLYSKLTVDKSRWQQGNVFSCSVLHEALHSHYTQKSLSLSPGK light: not shown |  |  |  |  |  | 161 | 219 | 6.3 nM |  | 72% | 71% |  | 0.47 nM | 102 nM | 
PGT121.64 hIgG1/hLambda (antibody) heavy: QLQLQESGPGLVKPSETLSLTCSVSGASISDAYWSWIRRSPGKGLEWIGYVHKSGDTNYNPSLKSRVHLSLDTSKNQVSLSLTGVTAADSGKYYCARALHGRRIYGIVAFNEWFTYFYMDVWGTGTQVTVSSASTKGPSVFPLAPSSKSTSGGTAALGCLVKDYFPEPVTVSWNSGALTSGVHTFPAVLQSSGLYSLSSVVTVPSSSLGTQTYICNVNHKPSNTKVDKKVEPKSCDKTHTCPPCPAPELLAGPDVFLFPPKPKDTLMISRTPEVTCVVVDVSHEDPEVKFNWYVDGVEVHNAKTKPREEQYNSTYRVVSVLTVLHQDWLNGKEYKCKVSNKALPLPEEKTISKAKGQPREPQVYTLPPSREEMTKNQVSLTCLVKGFYPSDIAVEWESNGQPENNYKTTPPVLDSDGSFFLYSKLTVDKSRWQQGNVFSCSVLHEALHSHYTQKSLSLSPGK light: not shown |  |  |  |  |  | 167 | 188 | 1.4 nM | 1.6 nM | 66% | 70% | 2 fold | 1.59 nM | 125 nM | 79
